For assay [1], the target named is T1, SARS-CoV-2 spike protein RBD (amino acids 319-537 of SEQ ID NO:1, i.e. SEQ ID NO:5) with a carboxy t (SARS-CoV-2), P0DTC2. As to conditions: remark: other sources report otherwise.
Assay [2] addresses T1, SARS-CoV-2 spike protein RBD (amino …). The following applies: remark: other sources report otherwise. The source holds these as a separate data set.

Read-outs that look alike come from different tables or passages of the source.

B1: antibody S1D2 (fully human recombinant monoclonal IgG1, no Fc mutation) (antibody, V domains shown)
VH: EVQLVESGGGLIQPGGSLRLSCAASGFTVSSNYMSWVRQAPGKGLEWVSIIYPGGSTNYADSVKGRFTISRDNSRNTLYLQMNSLRAEDTAVYYCARELGYYGMDVWGQGTTVTVSS
VL: DIQMTQSPSSVSASVGDRVTITCRASQGISTWLVWYQQKPGKAPNLLIYGASSLQSGVPSRFSGSGSGTDFTLTISSLQPEDFATYYCQQANSFPYTFGQGTKLEIK
For the molecule B1, in assay [1], the Kd was determined as 46.2 nM, the off-rate (koff) came to 0.027 s⁻¹ and the kon was 584000 M⁻¹ s⁻¹. This molecule showed a Kd in assay [2] of 46 nM.

As usually defined, the Kd is the equilibrium constant for the complex coming apart. A high value points to a looser complex. What is called koff is a measure of how fast the partners let go of each other. Read a low koff as a long-lived complex. A word on the kon: it is the second-order rate constant of association.

The values above are taken from US20230406907A1.
